# From PMC7419483, “Phenolic metabolism in the hornwort Anthoceros agrestis: 4-coumarate CoA ligase and 4-hydroxybenzoate CoA ligase” (Plant Cell Reports, 2020)
# Assays:
# Aa4CL_1 = Aa4CL_1 (Anthoceros agrestis, UniProt A0A6M6A6J9); test: spectrophotometric CoA-ester formation, Michaelis-Menten; format: biochemical; settings: pH 7.0 potassium phosphate, 40 °C
# Excerpt: spectrophotometric CoA-ester formation, Michaelis-Menten on Aa4CL_1
# purified protein [1] = substrate: CC(C)(COP(=O)(O)OP(=O)(O)OC[C@H]1O[C@@H](n2cnc3c(N)ncnc32)[C@H](O)[C@@H]1OP(=O)(O)O)[C@@H](O)C(=O)NCCC(=O)NCCS; test: purified protein; format: biochemical, Anthoceros agrestis; settings: pH 7.0 potassium phosphate, 45 °C, co-substrates 4-hydroxybenzoic acid and ATP, MgCl2, 1 mM DTT
# purified protein [2] = substrate: O=C(O)c1ccc(O)cc1; test: purified protein; settings: apparent Km, pH 7.0 potassium phosphate, 45 °C, standard assay […] ATP, […] MgCl2, 500 µM CoA, 1 mM DTT
# purified protein [3] = substrate: Nc1ncnc2c1ncn2[C@@H]1O[C@H](COP(=O)(O)OP(=O)(O)OP(=O)(O)O)[C@@H](O)[C@H]1O; test: purified protein; settings: pH 7.0 potassium phosphate, 45 °C, co-substrates 4-hydroxybenzoic acid and CoA, MgCl2, 1 mM DTT
# [4] = standard assay […] ATP, […] MgCl2, 500 µM CoA, 1 mM DTT
# [5] = MgCl2, hydroxycinnamic acid co-substrate not stated
# Sequence of Aa4CL_1 (A0A6M6A6J9 entry or part of it): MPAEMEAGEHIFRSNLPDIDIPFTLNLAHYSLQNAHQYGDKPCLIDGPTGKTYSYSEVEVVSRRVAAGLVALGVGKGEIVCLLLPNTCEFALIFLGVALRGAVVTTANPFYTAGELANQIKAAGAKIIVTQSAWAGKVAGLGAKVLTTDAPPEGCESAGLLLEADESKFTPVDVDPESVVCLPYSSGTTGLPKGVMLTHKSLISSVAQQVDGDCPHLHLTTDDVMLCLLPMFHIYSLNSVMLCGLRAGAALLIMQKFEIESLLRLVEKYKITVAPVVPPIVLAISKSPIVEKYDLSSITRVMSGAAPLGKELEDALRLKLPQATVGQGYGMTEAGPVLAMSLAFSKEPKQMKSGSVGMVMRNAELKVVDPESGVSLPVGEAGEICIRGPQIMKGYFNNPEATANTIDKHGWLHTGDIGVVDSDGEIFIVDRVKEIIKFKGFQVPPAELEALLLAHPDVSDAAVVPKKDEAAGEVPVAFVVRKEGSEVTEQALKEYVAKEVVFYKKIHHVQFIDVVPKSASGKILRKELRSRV
molecule,measurement,setting,value
COc1ccc(/C=C/C(=O)O)cc1O [isoferulic acid],Km,Aa4CL_1; [4],9.9 ± 1.8 µM
CC(C)(COP(=O)(O)OP(=O)(O)OC[C@H]1O[C@@H](n2cnc3c(N)ncnc32)[C@H](O)[C@@H]1OP(=O)(O)O)[C@@H](O)C(=O)NCCC(=O)NCCS [CoA],Km,Aa4CL_1; [5],10.2 ± 0.2 µM
O=C(O)/C=C/c1ccc(O)c(O)c1 [caffeic acid],Km,"Aa4CL_1; standard assay […] ATP, […] MgCl2, 500 µM CoA, no DTT",15.5 ± 1.9 µM
O=C(O)/C=C/c1ccccc1 [cinnamic acid],Km,Aa4CL_1; [4],218 ± 74.7 µM
O=C(O)/C=C/c1ccc(O)cc1 [4-coumaric acid],Km,Aa4CL_1; [4],12.8 ± 4 µM
Nc1ncnc2c1ncn2[C@@H]1O[C@H](COP(=O)(O)OP(=O)(O)OP(=O)(O)O)[C@@H](O)[C@H]1O [ATP],Km,Aa4CL_1; [5],227 ± 31.8 µM
COc1cc(/C=C/C(=O)O)ccc1O [ferulic acid],Km,Aa4CL_1; [4],61.4 ± 21.9 µM
Aa4HBCL (Anthoceros agrestis) (protein) MASLSEPEHIFRSSLPAAAIPNVTVPEYILLNAIRPEDEHRVAVVDASDERQYTYGQTRILVKNVAAGLRNLLGIRKGDVVFVLLPNTAEYFILVLGIMWAGGVYSGGNPYAHPGEIEKQIQDSEAKVVVTDSTYFEKVKQFAHQLPILLTPVSSAAPTDKSVTPNPEGSTSVQRLLEYDGSEYVPPEPISQDDLCALPYSSGTTGLSKGVKLTHRNLLANTTRTCPIPAVPPTPAQLASVKRYVVLGLLPFFHIYGTTGICCSTMRYQGTLVVLPRYDLRLMLAALIKYEVTFTPLVPPIILQMVKSPIVNEFDLSKLKLEGVMTAAAPLPPDIQKAFEARFPGVELRQAYGLTEYSCITLSHVPLGYPRGNAKKGSVGFLIPGTEMKILDPDTGKSLPANRAGEICVRGESTMNGYFKNEEATAATIDEQGWLHTGDVGYIDDDGDVFIVERAKELIKYKGFQVPPAELEAILVAHPLIADAAVIPIPDDEAGELPAACVVLAPNSHLNEEDVIRYVGAKVASYKKVRHVEFVSSIPKSLSGKTLRRVLKDDILKRLKKTENQLI,Km,purified protein [1],247.8 ± 19.9 µM
same,Vmax,purified protein [1],1.95 µmol/min/mg
same,kcat,purified protein [1],2.2 ± 0.1 s⁻¹
same,kcat/Km,purified protein [1],8700 M⁻¹ s⁻¹
same,Km,purified protein [2],664.2 ± 1.5 µM
same,Vmax,purified protein [2],0.99 µmol/min/mg
same,kcat,purified protein [2],1.1 s⁻¹
same,kcat/Km,purified protein [2],1700 M⁻¹ s⁻¹
same,Km,purified protein [3],1175.3 ± 135.2 µM
same,Vmax,purified protein [3],1.4 µmol/min/mg
same,kcat,purified protein [3],1.6 s⁻¹
same,kcat/Km,purified protein [3],1300 M⁻¹ s⁻¹
